According to patent US20240254250A1 (HARPOON THERAPEUTICS, published 2024):

Target: 253BH10 trispecific protein
Assay: affinity measurement, method not stated

Chain of 253BH10 trispecific protein (chain, as listed by the source limits assumed, form in doubt): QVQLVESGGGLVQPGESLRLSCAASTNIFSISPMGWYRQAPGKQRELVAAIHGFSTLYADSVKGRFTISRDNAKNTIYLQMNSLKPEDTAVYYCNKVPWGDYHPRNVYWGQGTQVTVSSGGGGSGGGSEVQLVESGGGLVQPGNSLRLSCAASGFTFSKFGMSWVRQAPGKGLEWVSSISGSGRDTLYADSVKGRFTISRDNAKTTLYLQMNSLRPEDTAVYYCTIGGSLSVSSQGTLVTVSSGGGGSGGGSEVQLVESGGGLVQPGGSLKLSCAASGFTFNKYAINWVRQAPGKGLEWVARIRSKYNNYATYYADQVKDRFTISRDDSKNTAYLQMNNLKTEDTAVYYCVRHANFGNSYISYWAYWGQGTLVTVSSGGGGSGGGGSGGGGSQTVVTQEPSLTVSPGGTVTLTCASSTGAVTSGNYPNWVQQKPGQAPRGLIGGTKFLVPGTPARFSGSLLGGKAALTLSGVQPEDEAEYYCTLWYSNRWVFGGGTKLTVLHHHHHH

- Kd: 27.7 nM
B1: human BCMA protein (receptor)
chain: MLQMAGQCSQNEYFDSLLHACIPCQLRCSSNTPPLTCQRYCNASVTNSVKGTNA
